In paper PMC12624006:

Biological target: Lhcp-2 polypeptide of the prasinophyte light-harvesting complex Lhcp (Ostreococcus tauri) (Ostreococcus tauri)
Test: cryo-EM structure

Substance: Lhcp-2 polypeptide of the prasinophyte light-harvesting complex Lhcp (Ostreococcus tauri) (natural protein)
- stoichiometry N: 3
